Changes are numbered by the printed parent chain. Numbers in names are those of the source.
T1: human beta-Klotho (Homo sapiens, UniProt Q86Z14)
T1 sequence (Q86Z14 1-1044): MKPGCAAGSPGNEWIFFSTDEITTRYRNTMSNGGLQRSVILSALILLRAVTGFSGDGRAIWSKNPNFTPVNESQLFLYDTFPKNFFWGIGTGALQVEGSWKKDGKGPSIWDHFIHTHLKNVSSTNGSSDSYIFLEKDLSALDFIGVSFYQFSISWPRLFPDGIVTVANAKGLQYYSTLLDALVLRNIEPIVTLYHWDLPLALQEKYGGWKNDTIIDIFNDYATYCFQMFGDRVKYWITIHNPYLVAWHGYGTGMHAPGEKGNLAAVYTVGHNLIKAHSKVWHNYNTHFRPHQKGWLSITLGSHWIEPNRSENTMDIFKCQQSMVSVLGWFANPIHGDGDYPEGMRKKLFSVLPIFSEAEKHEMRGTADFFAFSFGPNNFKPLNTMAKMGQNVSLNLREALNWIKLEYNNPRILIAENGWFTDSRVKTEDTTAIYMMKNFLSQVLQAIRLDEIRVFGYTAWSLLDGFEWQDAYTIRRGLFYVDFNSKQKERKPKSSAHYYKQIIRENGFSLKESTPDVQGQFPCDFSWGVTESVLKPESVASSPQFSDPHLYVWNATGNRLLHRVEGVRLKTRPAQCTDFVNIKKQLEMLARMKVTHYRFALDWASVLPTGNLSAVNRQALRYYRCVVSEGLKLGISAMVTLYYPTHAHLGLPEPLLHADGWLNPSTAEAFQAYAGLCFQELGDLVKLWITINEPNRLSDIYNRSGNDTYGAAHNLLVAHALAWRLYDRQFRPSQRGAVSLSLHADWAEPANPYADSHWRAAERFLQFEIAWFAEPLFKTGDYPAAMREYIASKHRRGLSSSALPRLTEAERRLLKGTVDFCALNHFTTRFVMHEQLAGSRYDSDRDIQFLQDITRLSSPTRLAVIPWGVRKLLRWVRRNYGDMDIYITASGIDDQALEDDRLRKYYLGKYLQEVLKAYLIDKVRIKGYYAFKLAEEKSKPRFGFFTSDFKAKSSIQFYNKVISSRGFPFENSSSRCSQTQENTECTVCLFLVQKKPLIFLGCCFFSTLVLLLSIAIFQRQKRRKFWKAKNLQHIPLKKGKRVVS

B1: Ab0395: IgG4 PE; 16H7 VL (Y48del, D95A, W90F); 16H7 VH (M34V, F54W, I83T, D109E) (antibody)
VH: QVTLKESGPVLVKPTETLTLTCTVSGFSLNNARVGVSWIRQPPGKALEWLAHIWSNDEKSYSTSLKSRLTISKDTSKSQVVLTMTNMDPVDTATYYCARSVVTGGYYYEGMDVWGQGTTVTVSS
light: SYVLTQPPSVSVAPGQTARITCGGNNIGSESVHWYQQKPGQAPVLVVDDSDRPSGIPERFSGSNSGNTATLTISRVEAGDEADYYCQVFDGNSAHVVFGGGTKLTVLGQPKANPTVTLFPPSSEELQANKATLVCLISDFYPGAVTVAWKADGSPVKAGVETTKPSKQSNNKYAASSYLSLTPEQWKSHRSYSCQVTHEGSTVEKTVAPTECS
B2: Ab0396: IgG4 PE; 16H7 VL (Y48del, D95A, W90F); 16H7 VH (M34V, H52S, F54W, I83T, D109E) (antibody)
VH: B1 VH with H52S
light: B1 light
B3: Ab0397: IgG4 PE; 16H7 VL (Y48del, D95A, W90F, S1C, S94C); 16H7 VH (M34V, F54W, I83T, D109E) (antibody)
VH: B1 VH
light: B1 light with S1C, S93C
B4: Ab0398: IgG4 PE; 16H7 VL (Y48del, D95A, W90F, S1C, S94C); 16H7 VH (M34V, H52S, F54W, I83T, D109E) (antibody)
VH: B1 VH with H52S
light: B1 light with S1C, S93C
B5: Ab0399: IgG4 PE; 16H7 VL (Y48del, D95A, W90F, S94C, H96C); 16H7 VH (M34V, F54W, I83T, D109E) (antibody)
VH: B1 VH
light: B1 light with S93C, H95C
B6: Ab0400: IgG4 PE; 16H7 VL (Y48del, D95A, W90F, S94C, H96C); 16H7 VH (M34V, H52S, F54W, I83T, D109E) (antibody)
VH: B1 VH with H52S
light: B1 light with S93C, H95C
B7: Ab0401: IgG4 PE; 16H7 VL (Y48del, D95A, W90F); 16H7 VH (M34V, H52W, I83T, D109E) (antibody)
VH: B1 VH with H52W, W54F
light: B1 light
B8: Ab0402: IgG4 PE; 16H7 VL (Y48del, D95A, W90F, S94C, H96C); 16H7 VH (M34V, H52W, I83T, D109E) (antibody)
VH: B1 VH with H52W, W54F
light: B1 light with S93C, H95C
B9: Ab0403: IgG4 PE; 16H7 VL (Y48del, D95A, W90F, S1C, S94C); 16H7 VH (M34V, H52W, I83T, D109E) (antibody)
VH: B1 VH with H52W, W54F
light: B1 light with S1C, S93C
B10: Ab0404: IgG4 PE; 16H7 VL (Y48del, D95T, W90F); 16H7 VH (M34V, F54W, I83T, D109E) (antibody)
VH: B1 VH
light: B1 light with A94T
B11: Ab0405: IgG4 PE; 16H7 VL (Y48del, D95T, W90F); 16H7 VH (M34V, H52S, F54W, I83T, D109E) (antibody)
VH: B1 VH with H52S
light: B1 light with A94T
B12: Ab0406: IgG4 PE; 16H7 VL (Y48del, D95T, W90F, S1C, S94C); 16H7 VH (M34V, H52S, F54W, I83T, D109E) (antibody)
VH: B1 VH with H52S
light: B1 light with S1C, S93C, A94T
B13: Ab0408: IgG4 PE; 16H7 VL (Y48del, D95T, W90F); 16H7 VH (M34V, H52W, I83T, D109E) (antibody)
VH: B1 VH with H52W, W54F
light: B1 light with A94T
B14: Ab0410: IgG4 PE; 16H7 VL (Y48del, D95S, W90Y); 16H7 VH (M34V, I83T, D109E) (antibody)
VH: B1 VH with W54F
light: B1 light with F89Y, A94S
B15: Ab0416: IgG4 PE; 16H7 VL (N25S, D49Y, D50E, D91E, N93E); 16H7 VH (M34V, I83T, D109E) (antibody)
VH: B1 VH with W54F
light: SYVLTQPPSVSVAPGQTARITCGGSNIGSESVHWYQQKPGQAPVLVVYYESDRPSGIPERFSGSNSGNTATLTISRVEAGDEADYYCQVWEGESDHVVFGGGTKLTVLGQPKANPTVTLFPPSSEELQANKATLVCLISDFYPGAVTVAWKADGSPVKAGVETTKPSKQSNNKYAASSYLSLTPEQWKSHRSYSCQVTHEGSTVEKTVAPTECS
B16: Ab0417: IgG4 PE; 16H7 VL (N25S, D49Y, D50E, D91H, N93E); 16H7 VH (M34V, I83T, D109E) (antibody)
VH: B1 VH with W54F
light: B15 light with E91H
B17: Ab0326: IgG4 PE; 16H7 VL (N25S, D49Y, D50E, D91E, N93S); 16H7 VH (M34V, I83T, D109E) (antibody)
VH: B1 VH with W54F
light: B15 light with E93S
B18: Ab0327: IgG4 PE; 16H7 VL (N25S, D49Y, D50Y, D91E, N93E); 16H7 VH (M34V, I83T, D109E) (antibody)
VH: B1 VH with W54F
light: B15 light with E50Y
B19: Ab0328: IgG4 PE; 16H7 VL (N25S, D49Y, D50A, D91A, N93S); 16H7 VH (M34V, I83T, D109E) (antibody)
VH: B1 VH with W54F
light: B15 light with E50A, E91A, E93S
B20: Ab0329: IgG4 PE; 16H7 VL (N25S, D49Y, D50S, D91A, N93S); 16H7 VH (M34V, I83T, D109E) (antibody)
VH: B1 VH with W54F
light: B15 light with E50S, E91A, E93S
B21: Ab0330: IgG4 PE; 16H7 VL (N25S, D49S, D50E, D91A, N93E); 16H7 VH (M34V, I83T, D109E) (antibody)
VH: B1 VH with W54F
light: B15 light with Y49S, E91A

What follows are molecules tested against T1, human beta-Klotho (assay: SPR off-rate screening of antibody mutants (human beta-Klotho captured by anti-His antibody)). Conditions: mean, n=3.
Type: binding
Procedure: Screening of antibody mutants for binding to human beta-Klotho was determined in a different SPR assay set up. Human beta-Klotho was affinity captured by an anti-His antibody (from His capture kit, GE Healthcare) that was immobilized to a series S CM5 chip (GE Healthcare) by amine reactive coupling as described above. The antibody samples were used as analytes at 50 nmol/L concentration. Association time was 240 sec and dissociation time was 300 sec. Chip surfaces were regenerated using the regeneration solution supplied with the His capture kit. The off-rates (kd) were determined using single exponential fitting in the Biacore 8K Evaluation Software version 1.1.1.7442 (GE Healthcare).
B1 was tested, and the “koff human KLB” value was “no binding”. With B2 the “koff human KLB” value was “no binding”. In the case of B3, the “koff human KLB” value is reported as “no binding”. In the case of B4, the “koff human KLB” value is reported as “no binding”. B5 was tested, and the “koff human KLB” value was “no binding”. B6 was tested, and the “koff human KLB” value was “no binding”. For B7, the “koff human KLB” value was “no binding”. With B8 the “koff human KLB” value was “no binding”. For B9, the “koff human KLB” value was “no binding”. For B10, the “koff human KLB” value was “no binding”. For B11, the “koff human KLB” value was “no binding”. B12 was tested, and the “koff human KLB” value was “no binding”. For B13, the “koff human KLB” value was “no binding”. With B14 the “koff human KLB” value was “no binding”. With B15 the “koff human KLB” value was 0.00107 s⁻¹. For B16, the “koff human KLB” value was 0.0003027 s⁻¹. B17 was tested, and the “koff human KLB” value was 0.00175 s⁻¹. For B18, the “koff human KLB” value was 0.0003459 s⁻¹. For B19, the “koff human KLB” value was “invalid fit”. B20 was tested, and the “koff human KLB” value was “invalid fit”. For B21, the “koff human KLB” value was “invalid fit”.
